Broadly, the Kd is the constant that tells how readily two partners part at equilibrium. As usually defined, the koff is a measure of how fast the partners let go of each other. As a reminder, the kon is the rate constant with which the complex forms. High values mean faster complex formation, low ones slower complex formation.

The source of these data is patent US20260159603A1 (BEAM THERAPEUTICS, published 2026).

T1: biotinylated human CD5-HIS (human, UniProt P06127 25-372, biotinylated)
T1 construct: Loaded onto streptavidin Octet pins; also called huCD5; SA-human CD5; not shown: HIS tag
T1 sequence (looked up): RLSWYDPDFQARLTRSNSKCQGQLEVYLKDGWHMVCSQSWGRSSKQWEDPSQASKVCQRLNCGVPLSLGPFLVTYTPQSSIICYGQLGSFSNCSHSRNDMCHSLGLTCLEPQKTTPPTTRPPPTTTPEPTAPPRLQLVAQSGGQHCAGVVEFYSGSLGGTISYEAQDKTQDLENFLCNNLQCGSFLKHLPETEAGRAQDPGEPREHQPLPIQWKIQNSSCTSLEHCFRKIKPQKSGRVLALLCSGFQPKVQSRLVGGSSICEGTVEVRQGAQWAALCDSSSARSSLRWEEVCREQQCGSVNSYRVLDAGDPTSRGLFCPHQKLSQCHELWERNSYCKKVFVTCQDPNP

T2: human CD5 on transfected HEK293T cells (human, UniProt P06127 25-495)
T2 construct: whole, on cells; also called huCD5; Human CD5 Cells
T2 sequence (looked up): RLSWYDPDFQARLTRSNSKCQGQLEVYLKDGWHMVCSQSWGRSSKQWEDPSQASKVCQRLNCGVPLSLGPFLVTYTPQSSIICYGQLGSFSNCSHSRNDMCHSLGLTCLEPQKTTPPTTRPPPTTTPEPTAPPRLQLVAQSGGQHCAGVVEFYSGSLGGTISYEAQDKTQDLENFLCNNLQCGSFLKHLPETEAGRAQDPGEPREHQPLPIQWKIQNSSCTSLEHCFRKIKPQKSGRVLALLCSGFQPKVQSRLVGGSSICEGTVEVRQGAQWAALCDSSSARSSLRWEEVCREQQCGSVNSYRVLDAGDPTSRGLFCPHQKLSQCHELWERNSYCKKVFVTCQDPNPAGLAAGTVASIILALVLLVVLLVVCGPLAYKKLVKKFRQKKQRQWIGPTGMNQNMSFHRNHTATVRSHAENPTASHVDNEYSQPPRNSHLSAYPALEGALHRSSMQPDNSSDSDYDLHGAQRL

B1: ABTx323 (VHH)
VHH: QVQLQESGGGLVQAGGSLRLSCATSGITSSINVIGWYRQAPGKQRELVALVNSGGQTHYADSVKGRFTISRDNAKNTVFLQMNSLKPEDTAEYYCHGRYGIDNYWGEGTQVTVSS
notes: VHH in periplasmic extract of the phage display clone; also called clone 155; not shown: c-myc tag of the phagemid construct (detected with anti-c-myc 9E10)
B2: ABTx329 (VHH)
VHH: QLQLVESGGGLVQPGESLRLSCAASGFSFSRVGMNWYRQAPGKERELVASISSDGSRTNYAHFVKGRFTISRDNVKNMVYLQMNSLKLEDTAVYYCNVPGNSWGQGTQVTVSS
notes: VHH in periplasmic extract of the phage display clone; also called clone 1091; not shown: c-myc tag of the phagemid construct (detected with anti-c-myc 9E10)
B3: ABTx324 (VHH)
VHH: QVQLVESGGGLVQPGGSVRLSCATSGSIFSTNVMGWYRQAPGKEREFVALIRGGGSTHYADSVKGRFIISRENAKTTVYLQMNGLKPEDTAVYYCVIWLGSPGAMSDYWGQGTQVTVSS
notes: VHH in periplasmic extract of the phage display clone; also called clone 550; not shown: c-myc tag of the phagemid construct (detected with anti-c-myc 9E10)
B4: ABTx326 (VHH)
VHH: QVQLVESGGGLVQPGGSLRLSCAASGRTFINYAAGWFRQAPGKEREFVARISRSGGRTDYADSVKGRFTISRDNAKSTVYLQMNSLRPEDTAVYYCAEATVWEFTDGADQYDYWGQGTQVTVSS
notes: VHH in periplasmic extract of the phage display clone; also called clone 199; not shown: c-myc tag of the phagemid construct (detected with anti-c-myc 9E10)
B5: ABTx327 (VHH)
VHH: QVQLVESGGGLVQPGGSLRLSCVASGGTFSTYGMGWFRQAPGKEREFVAVITGSGVGTQYADSVKDRFTISRENAKNTVYLQMNTLKLEDTAVYYCVSGHRPGWAVIRADAYEYWGQGTQVTVSS
notes: VHH in periplasmic extract of the phage display clone; also called clone 834; not shown: c-myc tag of the phagemid construct (detected with anti-c-myc 9E10)
B6: ABTx325 (VHH)
VHH: QVQLVESGGGLVQPGGSLRLSCAASGSDASTNNMAWYRQAPGKEREFVALIRTGGSTHVADSMKGRFTISRENAKNTVYLQMNSLKPEDTAVYYCVIWTGSPGALSDYWGQGTQVTVSS
notes: VHH in periplasmic extract of the phage display clone; also called clone 420; not shown: c-myc tag of the phagemid construct (detected with anti-c-myc 9E10)

In one test the target is T1, biotinylated human CD5-HIS. Kind of test: BLI; KD on human CD5 divided by KD on cynomolgus CD5.
With B1, the “Hu/Cyno KD” value came out at 0.9.

Turning to B2, the “Hu/Cyno KD” value is 0.4.

Regarding B3, the “Hu/Cyno KD” value was 0.7.

Consider B4, for which the “Hu/Cyno KD” value amounted to 0.9.

As for B5, the “Hu/Cyno KD” value was 0.3.

As to B6, the “Hu/Cyno KD” value was 0.8.

Another test addresses T1, biotinylated human CD5-HIS. Description: BLI (Octet), biotinylated CD5-HIS on streptavidin pins. (In general: In BLI a coated tip is dipped into the sample, and binding shifts an interference pattern.)
As to B1, the dissociation constant (Kd) is 1.2 nM, the off-rate (koff) worked out at 0.00011 s⁻¹ and the on-rate (kon) came out at 93000 M⁻¹ s⁻¹.

On to B2, for which binding was characterised by a dissociation constant (Kd) of 0.69 nM, the koff came out at 9.3e-05 s⁻¹ and the on-rate constant (kon) stood at 130000 M⁻¹ s⁻¹.

Turning to B3, binding was characterised by a dissociation constant (Kd) of 1.7 nM, the off-rate constant (koff) was 0.00017 s⁻¹ and the kon came to 99000 M⁻¹ s⁻¹.

Take B4: binding was characterised by a dissociation constant (Kd) of 2 nM, the koff is 0.00015 s⁻¹ and the kon turned out to be 74000 M⁻¹ s⁻¹.

B5 yielded a dissociation constant Kd of 0.22 nM, a dissociation rate constant (koff) of 3.6e-05 s⁻¹ and an on-rate constant (kon) of 160000 M⁻¹ s⁻¹.

On to B6, for which binding was characterised by a dissociation constant (Kd) of 1.5 nM, the off-rate (koff) worked out at 0.00013 s⁻¹ and the kon turned out to be 90000 M⁻¹ s⁻¹.

The target of a further test is T3, biotinylated cynomolgus CD5-HIS (cynomolgus).
T3 construct: Loaded onto streptavidin Octet pins; also called CynoCD5; SA-Cyno CD5
The test is described as above.
B1 yielded a Kd of 1.3 nM, an off-rate constant (koff) of 0.00012 s⁻¹ and an on-rate (kon) of 89000 M⁻¹ s⁻¹.

Consider B2, for which binding was characterised by a dissociation constant (Kd) of 1.6 nM, the koff turned out to be 0.00017 s⁻¹ and the kon was 110000 M⁻¹ s⁻¹.

B3: binding was characterised by a dissociation constant (Kd) of 2.3 nM, the koff came out at 0.00016 s⁻¹ and the kon came out at 71000 M⁻¹ s⁻¹.

On to B4, for which the dissociation constant (Kd) is 2.2 nM, the koff turned out to be 0.00015 s⁻¹ and the kon was determined as 68000 M⁻¹ s⁻¹.

For the molecule B5, the dissociation constant (Kd) was 0.78 nM, the off-rate constant (koff) is 0.00011 s⁻¹ and the on-rate (kon) was 140000 M⁻¹ s⁻¹.

B6 showed a dissociation constant Kd of 1.8 nM, a dissociation rate constant (koff) of 0.00013 s⁻¹ and a kon of 68000 M⁻¹ s⁻¹.

The next test concerns the target T2, human CD5 on transfected HEK293T cells. Kind of test: flow cytometry, periplasmic extract on transfected HEK293T cells. On the technique in general: Flow cytometry measures light scatter and fluorescence of single cells or particles in a stream.
For the molecule B1, the “percent of cells showing binding” value was found to be 64.1%.

With B2, the “percent of cells showing binding” value was determined as 72%.

B3: the “percent of cells showing binding” value was determined as 73.3%.

Take B4: the “percent of cells showing binding” value was found to be 41.6%.

In the case of B5, the “percent of cells showing binding” value amounted to 68%.

In the case of B6, the “percent of cells showing binding” value stood at 77.4%.

A further test addresses T4, cynomolgus CD5 on transfected HEK293T cells (cynomolgus (Table 8B); rhesus macaque …).
T4 construct: whole, on cells; also called Cynomolgus CD5 Cells; rhesus macaque (Macaca mulatta) CD5
The test is described as above.
With B1, the “percent of cells showing binding” value came to 54.6%.

For the molecule B2, the “percent of cells showing binding” value came out at 66.5%.

Take B3: the “percent of cells showing binding” value stood at 73.2%.

As to B4, the “percent of cells showing binding” value turned out to be 58.4%.

In the case of B5, the “percent of cells showing binding” value turned out to be 71.7%.

For the molecule B6, the “percent of cells showing binding” value is 80%.

Another test concerns the target T1, biotinylated human CD5-HIS. Description: BLI (Octet), biotinylated CD5-HIS on streptavidin pins, periplasmic extract, off-rate.
With B1, the off-rate constant (koff) worked out at 0.000138 s⁻¹.

In turn, B2 gave an off-rate (koff) of 0.000372 s⁻¹.

Take B3: the off-rate (koff) is 0.00271 s⁻¹.

B4 had a koff of 0.000825 s⁻¹. This koff lies about 3.3-fold lower than the previous one.

The molecule B5 displayed an off-rate constant (koff) of 0.0195 s⁻¹.

As to B6, the koff is 0.0027 s⁻¹.

Another test deals with T3, biotinylated cynomolgus CD5-HIS. The test is described as above.
Regarding B1, the off-rate constant (koff) came out at 0.000347 s⁻¹.

Turning to B2, the koff amounted to 0.000488 s⁻¹. The koff values of the last two molecules are within 1.5-fold of each other.

The molecule B3 came in with an off-rate constant (koff) of 0.0177 s⁻¹. Against the preceding molecule, the koff is about 36-fold higher.

For B4, the dissociation rate constant (koff) came to 0.00415 s⁻¹.

For B5, the koff was 0.0329 s⁻¹.

Molecule B6 returned a koff of 0.0143 s⁻¹.
